Here are results for twelve molecules from US20120034160A1 (AbbVie / Abbott, published 2012).

To fix the notation:
T1: Recombinant Human IL-17 (human, UniProt Q16552 20-155, limits assumed)
T1 construct: Bought reagent
T1 sequence (looked up): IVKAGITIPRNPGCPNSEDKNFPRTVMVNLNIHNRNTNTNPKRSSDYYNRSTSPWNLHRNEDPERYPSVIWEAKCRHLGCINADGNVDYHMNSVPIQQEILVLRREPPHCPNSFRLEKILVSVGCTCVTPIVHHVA

T2: Recombinant Human IL-17 (human, UniProt Q16552 20-155, limits assumed)
T2 construct: bought reagent
T2 sequence (looked up): T1 sequence (looked up)

B1: DVD1615 (bispecific antibody, human IgG1, kappa)
heavy: not shown
light: DTVVTQSPAFLSVTPGEKVTITCITSTDIDVDMNWYQQKPDQPPKLLISQGNTLRPGVPSRFSSSGSGTDFTFTISSLEAEDAATYYCLQSDNLPLTFGQGTKLEIKRTVAAPSVFIFPPEIVLTQSPDFQSVTPKEKVTITCRASQNIGSELHWYQQKPDQSPKLLIKYASHSISGVPSRFSGSGSGTDFTLTINGLEAEDAATYYCHQSDTLPHTFGQGTKVDIKRTVAAPSVFIFPPSDEQLKSGTASVVCLLNNFYPREAKVQWKVDNALQSGNSQESVTEQDSKDSTYSLSSTLTLSKADYEKHKVYACEVTHQGLSSPVTKSFNRGEC
notes: DVD-Ig, outer AB271, inner AB275, linker set 2; V1 wt hIgG1, V2 kappa; also called DVD1615H; DVD1615L
B2: DVD1629 (bispecific antibody, human IgG1, kappa)
heavy: not shown
light: DIQMTQSPSSLSASVGDRVTITCRASGNIHNYLTWYQQTPGKAPKLLIYNAKTLADGVPSRFSGSGSGTDYTFTISSLQPEDIATYYCQHFWSIPYTFGQGTKLQITRTVAAPEIVLTQSPDFQSVTPKEKVTITCRASQDIGSELHWYQQKPDQPPKLLIKYASHSTSGVPSRFSGSGSGTDFTLTINGLEAEDAGTYYCHQTDSLPYTFGPGTKVDIKRTVAAPSVFIFPPSDEQLKSGTASVVCLLNNFYPREAKVQWKVDNALQSGNSQESVTEQDSKDSTYSLSSTLTLSKADYEKHKVYACEVTHQGLSSPVTKSFNRGEC
notes: V1 wt hIgG1, V2 kappa; also called DVD1629H; DVD1629L
B3: DVD1631 (bispecific antibody, human IgG1, kappa)
heavy: not shown
light: B2 light
notes: V1 wt hIgG1, V2 kappa; also called DVD1631H; DVD1631L
B4: DVD1623 (bispecific antibody, human IgG1, kappa)
heavy: not shown
light: DTQVTQSPSSLSASVGDRVTITCITSTDIDVDMNWYQQKPGKPPKLLISQGNTLRPGVPSRFSSSGSGTDFTFTISSLQPEDFATYYCLQSDNLPLTFGQGTKLEIKRTVAAPDIQMTQSPSSLSASVGDRVTITCRASSGIISYIDWFQQKPGKAPKRLIYATFDLASGVPSRFSGSGSGTDYTLTISSLQPEDFATYYCRQVGSYPETFGQGTKLEIKRTVAAPSVFIFPPSDEQLKSGTASVVCLLNNFYPREAKVQWKVDNALQSGNSQESVTEQDSKDSTYSLSSTLTLSKADYEKHKVYACEVTHQGLSSPVTKSFNRGEC
notes: DVD-Ig, outer AB270, inner AB273, linker set 3; V1 wt hIgG1, V2 kappa; also called DVD1623H; DVD1623L
B5: DVD1627 (bispecific antibody, human IgG1, kappa)
heavy: not shown
light: B4 light with D1E, Q3T
notes: DVD-Ig, outer AB272, inner AB273, linker set 3; V1 wt hIgG1, V2 kappa; also called DVD1627H; DVD1627L
B6: DVD1625 (bispecific antibody, human IgG1, kappa)
heavy: not shown
light: DTVVTQSPAFLSVTPGEKVTITCITSTDIDVDMNWYQQKPDQPPKLLISQGNTLRPGVPSRFSSSGSGTDFTFTISSLEAEDAATYYCLQSDNLPLTFGQGTKLEIKRTVAAPDIQMTQSPSSLSASVGDRVTITCRASSGIISYIDWFQQKPGKAPKRLIYATFDLASGVPSRFSGSGSGTDYTLTISSLQPEDFATYYCRQVGSYPETFGQGTKLEIKRTVAAPSVFIFPPSDEQLKSGTASVVCLLNNFYPREAKVQWKVDNALQSGNSQESVTEQDSKDSTYSLSSTLTLSKADYEKHKVYACEVTHQGLSSPVTKSFNRGEC
notes: DVD-Ig, outer AB271, inner AB273, linker set 3; V1 wt hIgG1, V2 kappa; also called DVD1625H; DVD1625L
B7: DVD1635 (bispecific antibody, human IgG1, kappa)
heavy: not shown
light: DTVVTQSPAFLSVTPGEKVTITCITSTDIDVDMNWYQQKPDQPPKLLISQGNTLRPGVPSRFSSSGSGTDFTFTISSLEAEDAATYYCLQSDNLPLTFGQGTKLEIKRTVAAPEIVLTQSPDFQSVTPKEKVTITCRASQDIGSELHWYQQKPDQPPKLLIKYASHSTSGVPSRFSGSGSGTDFTLTINGLEAEDAGTYYCHQTDSLPYTFGPGTKVDIKRTVAAPSVFIFPPSDEQLKSGTASVVCLLNNFYPREAKVQWKVDNALQSGNSQESVTEQDSKDSTYSLSSTLTLSKADYEKHKVYACEVTHQGLSSPVTKSFNRGEC
notes: DVD-Ig: outer AB271, inner AB274; V1/V2 vectors: wild type hIgG1, kappa
B8: DVD1639 (bispecific antibody, human IgG1, kappa)
heavy: not shown
light: B2 light with D141N, P156S, T168I, G197A, T204S, S206T, Y209H, P213Q
notes: V1/V2 vectors: wild type hIgG1, kappa
B9: DVD1641 (bispecific antibody, human IgG1, kappa)
heavy: not shown
light: B2 light with D141N, P156S, T168I, G197A, T204S, S206T, Y209H, P213Q
notes: as for B8
B10: DVD1633 (bispecific antibody, human IgG1, kappa)
heavy: not shown
light: DTQVTQSPSSLSASVGDRVTITCITSTDIDVDMNWYQQKPGKPPKLLISQGNTLRPGVPSRFSSSGSGTDFTFTISSLQPEDFATYYCLQSDNLPLTFGQGTKLEIKRTVAAPEIVLTQSPDFQSVTPKEKVTITCRASQDIGSELHWYQQKPDQPPKLLIKYASHSTSGVPSRFSGSGSGTDFTLTINGLEAEDAGTYYCHQTDSLPYTFGPGTKVDIKRTVAAPSVFIFPPSDEQLKSGTASVVCLLNNFYPREAKVQWKVDNALQSGNSQESVTEQDSKDSTYSLSSTLTLSKADYEKHKVYACEVTHQGLSSPVTKSFNRGEC
notes: DVD-Ig: outer AB270, inner AB274; V1/V2 vectors: wild type hIgG1, kappa
B11: DVD1643 (bispecific antibody, human IgG1, kappa)
heavy: not shown
light: B10 light with D141N, P156S, T168I, G197A, T204S, S206T, Y209H, P213Q
notes: DVD-Ig: outer AB270, inner AB275; V1/V2 vectors: wild type hIgG1, kappa
B12: DVD1637 (bispecific antibody, human IgG1, kappa)
heavy: not shown
light: B10 light with D1E, Q3T
notes: DVD-Ig: outer AB272, inner AB274; V1/V2 vectors: wild type hIgG1, kappa

Residue numbers refer to the chain shown, from its start.

One assay concerns the target T3, Recombinant Human IL-1β (human, UniProt P01584 117-269).
T3 construct: bought reagent; also called IL-1B
The assay can be described thus: Biacore SPR; N-terminal VD. An outline of the steps:
(§1)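 Rate constants fitted globally to a 1:1 Langmuir model from antigen series of 10−200 nM flowed at 25 μl/min over captured antibody or DVD-Ig (anti-mouse IgG Fcγ capture, ligand at 25 μg/ml).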
On to B1, for which the Kd came to 55 pM, the off-rate (koff) was 0.00055 s⁻¹ and the on-rate constant (kon) turned out to be 9.9e+06 M⁻¹ s⁻¹.

On to B2, for which the Kd turned out to be 39 pM, the koff was 7.3e-05 s⁻¹ and the kon was 1.9e+06 M⁻¹ s⁻¹.

Turning to B3, the Kd came out at 17 pM, the koff amounted to 2.2e-05 s⁻¹ and the kon came out at 1.3e+06 M⁻¹ s⁻¹.

On to B4, for which the Kd was determined as 75 pM, the koff came to 0.00049 s⁻¹ and the kon was 6.6e+06 M⁻¹ s⁻¹.

On to B5, for which the Kd was 86 pM, the koff was 0.00059 s⁻¹ and the kon is 6.8e+06 M⁻¹ s⁻¹.

Consider B6, for which the Kd was 63 pM, the koff is 0.00054 s⁻¹ and the kon was determined as 8.6e+06 M⁻¹ s⁻¹.

Another assay addresses T4, Recombinant Human IL-1β (human, UniProt P01584 117-269).
T4 construct: Bought reagent; also called IL-1B
Description: Biacore SPR; N-terminal VD. In a few lines: as §1
As for B7, the Kd stood at 60 pM, the koff stood at 0.00045 s⁻¹ and the kon came to 7.6e+06 M⁻¹ s⁻¹.

Take B8: the Kd worked out at 45 pM, the koff stood at 5.6e-05 s⁻¹ and the kon was 1.2e+06 M⁻¹ s⁻¹.

On to B9, for which the dissociation constant Kd came to 18 pM, the koff is 1.9e-05 s⁻¹ and the on-rate (kon) stood at 1e+06 M⁻¹ s⁻¹.

Consider B10, for which the equilibrium dissociation constant (Kd) was 63 pM, the koff amounted to 0.00057 s⁻¹ and the kon was found to be 9e+06 M⁻¹ s⁻¹.

For B11, the dissociation constant Kd came out at 74 pM, the off-rate constant (koff) was found to be 0.00048 s⁻¹ and the on-rate constant (kon) worked out at 6.5e+06 M⁻¹ s⁻¹.

Regarding B12, the dissociation constant (Kd) came out at 75 pM, the dissociation rate constant (koff) was 0.00059 s⁻¹ and the kon is 7.9e+06 M⁻¹ s⁻¹.

The target of another assay is T1, Recombinant Human IL-17. The assay can be described thus: Biacore SPR; C-terminal VD. An outline of the steps: as §1
With B7, the equilibrium dissociation constant (Kd) came out at 140 pM, the dissociation rate constant (koff) came out at 4.9e-05 s⁻¹ and the on-rate constant (kon) was found to be 360000 M⁻¹ s⁻¹.

Take B8: the Kd is not above 2.8 pM, the koff is not above 1e-06 s⁻¹ and the kon stood at 370000 M⁻¹ s⁻¹.

Consider B9, for which the dissociation constant (Kd) was found to be 270 pM, the koff stood at 2.2e-05 s⁻¹ and the kon turned out to be 84000 M⁻¹ s⁻¹.

For the molecule B10, the Kd is less than 6.3 pM, the koff was less than 1e-06 s⁻¹ and the on-rate (kon) amounted to 160000 M⁻¹ s⁻¹.

With B11, the Kd stood at 520 pM, the dissociation rate constant (koff) was determined as 9.4e-05 s⁻¹ and the on-rate (kon) amounted to 180000 M⁻¹ s⁻¹.

For B12, the Kd was not above 2.5 pM, the koff is less than 1e-06 s⁻¹ and the kon was 230000 M⁻¹ s⁻¹.

Another assay has as its target T2, Recombinant Human IL-17. The assay can be described thus: Biacore SPR; C-terminal VD. In a few lines:
as §1
For the molecule B1, the Kd was found to be 150 pM, the koff was found to be 6e-05 s⁻¹ and the kon is 390000 M⁻¹ s⁻¹.

Regarding B2, the dissociation constant Kd is not above 0.11 pM, the koff is less than 1e-06 s⁻¹ and the kon is 1.4e+06 M⁻¹ s⁻¹.

For the molecule B3, the dissociation constant (Kd) is not above 0.14 pM, the koff is less than 1e-06 s⁻¹ and the kon came out at 250000 M⁻¹ s⁻¹.

For B4, the Kd is not above 0.034 pM, the off-rate (koff) was less than 1e-06 s⁻¹ and the kon worked out at 230000 M⁻¹ s⁻¹.

Take B5: the Kd was 8.4 pM, the off-rate constant (koff) worked out at 1.7e-06 s⁻¹ and the kon was determined as 200000 M⁻¹ s⁻¹.

On to B6, for which the Kd came out at 5.1 pM, the koff is 3.2e-06 s⁻¹ and the kon came out at 630000 M⁻¹ s⁻¹.

For another assay, the target named is T1, Recombinant Human IL-17. The assay can be described thus: cell-based or functional assay.
As for B7, the “C-terminal VD IL-17 Neutralization Assay EC50” value was 127 pM.

In the case of B8, the “C-terminal VD IL-17 Neutralization Assay EC50” value stood at 2610 pM.

Turning to B9, the “C-terminal VD IL-17 Neutralization Assay EC50” value is 1870 pM.

B10: the “C-terminal VD IL-17 Neutralization Assay EC50” value is 146 pM.

B11: the “C-terminal VD IL-17 Neutralization Assay EC50” value worked out at 121 pM.

With B12, the “C-terminal VD IL-17 Neutralization Assay EC50” value was found to be 27.1 pM.

The target of the next assay is T4, Recombinant Human IL-1β. The assay can be described thus: cell-based or functional assay.
Turning to B7, the “N-Terminal VD IL-1β Neutralization Assay EC50” value is 240 pM.

For the molecule B8, the “N-Terminal VD IL-1β Neutralization Assay EC50” value came out at 11.3 pM.

With B9, the “N-Terminal VD IL-1β Neutralization Assay EC50” value came out at 78.6 pM.

B10: the “N-Terminal VD IL-1β Neutralization Assay EC50” value stood at 371 pM.

B11: the “N-Terminal VD IL-1β Neutralization Assay EC50” value amounted to 465 pM.

Take B12: the “N-Terminal VD IL-1β Neutralization Assay EC50” value is 552 pM.
